Results reported in patent US20220378827A1 (EMORY UNIVERSITY, published 2022).

Target: T1, CD5 antigen on T cells (Jurkat, Molt-4, gamma delta T cells) (UniProt P06127 25-495, limits assumed)
T1 sequence (looked up): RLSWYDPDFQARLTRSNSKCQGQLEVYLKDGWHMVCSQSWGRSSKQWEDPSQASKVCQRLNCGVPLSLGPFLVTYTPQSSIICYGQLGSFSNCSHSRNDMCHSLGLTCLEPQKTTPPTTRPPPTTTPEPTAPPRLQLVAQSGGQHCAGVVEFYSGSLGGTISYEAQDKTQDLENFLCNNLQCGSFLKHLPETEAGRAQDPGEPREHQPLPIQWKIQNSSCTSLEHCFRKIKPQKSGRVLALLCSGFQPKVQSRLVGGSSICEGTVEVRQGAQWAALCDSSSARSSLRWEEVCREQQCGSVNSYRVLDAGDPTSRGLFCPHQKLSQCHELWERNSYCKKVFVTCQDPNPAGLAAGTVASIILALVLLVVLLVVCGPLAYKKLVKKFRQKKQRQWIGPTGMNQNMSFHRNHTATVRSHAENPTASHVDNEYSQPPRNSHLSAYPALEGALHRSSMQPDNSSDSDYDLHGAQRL
Experiment: cell-based or functional assay

B1: CD5-NSCAR (CD5 scFv non-signaling chimeric antigen receptor) (other)
chain: GAPEIQLVQSGGGLVKPGGSVRISCAASGYTFTNYGMNWVRQAPGKGLEWMGWINTHTGEPTYADSFKGRFTFSLDDSKNTAYLQINSLRAEDTAVYFCTRRGYDWYFDVWGQGTTVTVSSGGGGSGGGGSGGGGSDIQMTQSPSSLSASVGDRVTITCRASQDINSYLSWFQQKPGKAPKTLIYRANRLESGVPSRFSGSGSGTDYTLTISSLQYEDFGIYYCQQYDESPWTFGGGTKLEIKASEQKLISEEDLDNEKSNGTIIHVKGKHLCPSPLFPGPSKPFWVLVVVGGVLACYSLLVTVAFIIFWVRSEWPGKVR
CD5 expression on non-modified Jurkat T cells in co-culture with CD5-NSCAR-modified Jurkat T cells, 1:1 ratio: < 20%
